# Assay results reported in PMC8151781, “Ca^2+ Regulates ERp57-Calnexin Complex Formation” (Molecules, 2021).
# B1: human ERp57 (residues 25-505) (enzyme, UniProt P30101 25-505, looked up)
# chain: SDVLELTDDNFESRISDTGSAGLMLVEFFAPWCGHCKRLAPEYEAAATRLKGIVPLAKVDCTANTNTCNKYGVSGYPTLKIFRDGEEAGAYDGPRTADGIVSHLKKQAGPASVPLRTEEEFKKFISDKDASIVGFFDDSFSEAHSEFLKAASNLRDNYRFAHTNVESLVNEYDDNGEGIILFRPSHLTNKFEDKTVAYTEQKMTSGKIKKFIQENIFGICPHMTEDNKDLIQGKDLLIAYYDVDYEKNAKGSNYWRNRVMMVAKKFLDAGHKLNFAVASRKTFSHELSDFGLESTAGEIPVVAIRTAKGEKFVMQEEFSRDGKALERFLQDYFDGNLKRYLKSEPIPESNDGPVKVVVAENFDEIVNNENKDVLIEFYAPWCGHCKNLEPKYKELGEKLSKDPNIVIAKMDATANDVPSPYEVRGFPTIYFSPANKKLNPKKYEGGRELSDFISYLQREATNPPVIQEEKPKKKKKAQEDL
# notes: ERp57 (protein disulfide isomerase family member), human, residues 25-505; Cloned into the NdeI and BamHI sites of pET15b; also called wild-type ERp57
# B2: luminal domain of human calnexin (residues 21-481) (domain or fragment, UniProt P27824 21-481, looked up)
# chain: HDGHDDDVIDIEDDLDDVIEEVEDSKPDTTAPPSSPKVTYKAPVPTGEVYFADSFDRGTLSGWILSKAKKDDTDDEIAKYDGKWEVEEMKESKLPGDKGLVLMSRAKHHAISAKLNKPFLFDTKPLIVQYEVNFQNGIECGGAYVKLLSKTPELNLDQFHDKTPYTIMFGPDKCGEDYKLHFIFRHKNPKTGIYEEKHAKRPDADLKTYFTDKKTHLYTLILNPDNSFEILVDQSVVNSGNLLNDMTPPVNPSREIEDPEDRKPEDWDERPKIPDPEAVKPDDWDEDAPAKIPDEEATKPEGWLDDEPEYVPDPDAEKPEDWDEDMDGEWEAPQIANPRCESAPGCGVWQRPVIDNPNYKGKWKPPMIDNPSYQGIWKPRKIPNPDFFEDLEPFRMTPFSAIGLELWSMTSDIFFDNFIICADRRIVDDWANDGWGLKKAADGAAEPGVVGQMIEAAEERP
# notes: calnexin (CNX), human, luminal domain, residues 21-481; pET15b construct; the N-terminal His tag was removed from the plasmid and a His tag added at the C-terminus; also called CNX; ER-luminal domain of CNX
# How the values were obtained:
# Details in all cases: both partners purified
# [1] = target: B2; assay: ITC; ERp57 (370 μM) in the syringe titrated into CNX (25 μM) in the cell; 20 mM HEPES pH 7.2, 100 mM NaCl, with 1 mM CaCl2, 15 °C; one-set-of-sites model
# [2] = target: B2; assay: ITC; ERp57 (370 μM) in the syringe titrated into CNX (25 μM) in the cell; 20 mM HEPES pH 7.2, 100 mM NaCl, without Ca2+, 15 °C; one-set-of-sites model
# [3] = target: B1; assay: ITC; ERp57 (370 μM) in the syringe titrated into CNX (25 μM) in the cell; 20 mM HEPES pH 7.2, 100 mM NaCl, with 1 mM CaCl2, 15 °C; one-set-of-sites model
# [4] = target: B1; assay: ITC; ERp57 (370 μM) in the syringe titrated into CNX (25 μM) in the cell; 20 mM HEPES pH 7.2, 100 mM NaCl, without Ca2+, 15 °C; one-set-of-sites model
dH [1] [kcal/mol],dH [2] [kcal/mol],Kd [3] [nM],Kd [4] [nM],Binder
-3.81,-3.31,,,B1
,,1520,880,B2
